Source: the nanobody polyreactivity screen of Harvey et al. (2022)

Experiment: yeast display, Sf9 membrane polyspecificity reagent, FACS + sequencing; frameworks hold sequencing errors
Outline: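 Galactose induction of a Saccharomyces cerevisiae BJ5465 synthetic nanobody display library ran 36–48 hours. The cells were then stained for 1 hour at 4 °C with 10% biotinylated, detergent-solubilized Sf9 membrane reagent, pulled down on streptavidin microbeads and FACS-sorted into low and high (top ~1%) gates on expression and reagent-binding fluorescence. Labels for polyreactivity follow the gate of origin.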

| Sequence | polyreactivity (PSR sort gate) |
| --- | --- |
| QVQLVESGGGLVQAGGSLRLSCAASGRTIPSNAMGWYRQAPGKERELVAAITRSGGSTKYADSVKGRFTISRDNAKNTVYLQMNSLKPEDTAVYYCAGRYHSGSQVWYNYWGQGSQVTVSS | high polyreactivity |
| QVQLVESGGGLVQAGGSLRLSCAASGFTFYYYTMGWYIKAPGKERELVAAITRSGGRTYYADSVKGRFTISRDNAKNTVYLQMNSLKPEDTAVYYCAARTPFYNSYRRDYWGQGTQVTVSS | high polyreactivity |
| QVQLVESGGGLVQAGGSLRLSCAASGFTFFYYVMGWYRQAPGKERELVAAISQHGGSTYYADSVKGRFTISRDNAKNTVYLQMNSLKPEDTAVYYSAASPVVNRRGTYGYWGQGTQVTVSS | high polyreactivity |
| QVQLVESGGGLVQAGGSLRLSWAASGLTFTHNAMGWYRQAHGKERELVAAISRRGGSTYYADSVKGRFTISRDNAKNTVYLQRNSLKPEDTAVYYCNAPVKVRATTNWEYDYWGQGTEVTVSS | high polyreactivity |
| QVQLVESGGGLLQAGGSLRLSCAASGSIYTPYAMGWSRQAPGKERELVATITQSGSSTYYADSVKGRFTISRDNAKNSVYLQMNSLKPEDTAVYYCAADVQNISFDYWGQGTQVTVSS | low polyreactivity |
| QVQLVESGGGLVQAGGSLRLSCAASGSTFAINVMGWYRQAPGKERELVAAISSVGGTNYADSVKGRFTISRDNAKNTVYLQMNSLKPEDTAVYYCATVYSSWTVRYDYWGQGTQVTVSS | low polyreactivity |
| QVQLVESGGGLVQAGGSLRLSCAASGFTIAKYAMGWYRQAPGKERELVAAISSSGGRTYYADSVKGRFTISRDIAKNTVYLQMNSLNPEDTAVYYCAADFSGPFDYWGQGTQVSVSS | high polyreactivity |
| QVQLVESGGGLVQAGGSLRLSCADSGNIFYKNTMGWYRQAPGKERELVAAISVSGGGTYYADSVKGRFTISRDNAKNTVYLQMNSLKPEDTAVYYCAATWRQHPGSMGYWGLGTQVTVSS | high polyreactivity |
| QVQLVESGGGLVQAGGSLRLSCAATGGIFGYYSMGWYRQSPGKESELVAAINYSGGSTYYADSVKGRFTISRDNAKNTVYLQMNSLKPEDTAVYYCNAVVRDYTFRYYYWGQGTQVTVSS | low polyreactivity |
| QVQLVESGGGLVQAGGRLRLSCAASGFIFVRNAMGWYRQAPGKERELVAAISRGGGRTYYADSVKGRFTISRDNAKNTVYLQINRLKPEDTAVYYCNTQSVGVQFVKDNYWGQGTQVTVSS | high polyreactivity |
| QVQLVESGGGLVQAGGSLRLSCAASGLTFGRYAMGWYRQAPGKERELVAAITRSGGRTYYADSVKGRFTISRDNAKNTVYLQMNSLKPEDTAVYYCNKLSHLGAPGDPDDYWGQGTQVTVSS | high polyreactivity |
| QVQLVESGGGLVQAGGRLRLSCADSGIIFRAYTIGWYRQATGKERELVAGITSGGSTYYADSVKGRFTISRDNAKNTVYLQMNSLKPEDTAVYYCATYYGRWTPIPYEYWGQGTQVTVSS | high polyreactivity |
| QVQLVESGGGLVQAGGSLRLSCAASGRIFAYYAMGWYRQAPGKERELVAAINRSGVRTYYADSVKGRFTISRDNAMNTVYFQINSLKPEDTAVYYCAAYVVGGEGDYWGQGTQVTVSS | high polyreactivity |
| QVQLVESGGGLVQAGGSLRLSCAASGRIFAYYTMGWYRQAPGKERELVAAITNGGRTSYADSVKGRFTISRDNAKNTVYLQMNSLKPEDTAVYYCNAQQYRWPRVYYNYNYWGQGTQVTVSS | high polyreactivity |
| QVQLVESGGGLDQAGGSLRLTCAASGRIISGNAMGWYRQAPGKERELVAAISWSGGSTYYADSVKWRFTISRDNEKNTVYLHMNSLQPEDSAVYYCNAPGYRRYGSRMGYCGQGTQVTVSS | high polyreactivity |
| QVQLVESGGGLVQAGGSLRLSCAASGSIFGLNALGWSRQAPGKERELVAGITWSGGSSTYYADSVKGRFTISRDYAKNTVYLQMNSLKPEDTAVYNCAARRVFIPYYVRFYYWGQGTQVTVSS | high polyreactivity |
| QVQLVESGGGLVQAGGSLRLSCAASGITFSYYAMGWYRQAPGKERELVAAISYTSGSTYYADSVKGRFTISRDNAKNTVYLQMNSLKPEDTAGYYCAARSRWSKQFRYDYWGQGTQVTVSS | high polyreactivity |
| QVQLVESGGGIVQSGGSLRLSCAASGRTFSSYAMGRYRQAPGKEMALVAAINRGGGSTYYADSVKGRFTISRDNAKNTVYLQMNSLKPEDTAVYYCNARSKLTYEYDYWGQGTQVTVSS | high polyreactivity |
| QVQLVESGGGLVQAGGSLRLSCDDSGRTFYPYAMGRYRHAPGKERELVAAISYRGGSTYYADSVKGRFTISRDNAKNTVYLQMNCLKPEDRAVYYCAKRGYASGSKWDYGYWGQGTQLTVSS | high polyreactivity |
| QVQLVESGGGLVQAGGSLRLSCAASGSTFRTYAIGWYRQAPAKERELVAAISRSGGRTYYADSVKGRFTISRDNAMNTVYLQMNSLKPEDTAVYYCAVGDTYTYDYWGQGTQVTVSS | high polyreactivity |
| QVQLVESGGGLVQAGGRLRLSCAASGRIFQHNTMGWYRQAPGKEREFVAAIRRSGGSTYYADSVKGRFTISRDNAKNTVYLQMNSLRPEDTAVYYCAARDYPTGTRRWGGGDSWGQGTQVTVSS | low polyreactivity |
| QVQLVESGGGLVQAGGSLRLSCAASGSIFYWYAMGWYRQAPGKERELVAAISSGGSTNYADSVKGRFTISRDNAKNTVYLQMNSLKPEDTAVYYCNADVPVRYGPIYFRRLDYWGQGTQVTVSS | low polyreactivity |

| Sequence | polyreactivity (PSR sort gate) |
| --- | --- |
| QVQLVESGGGLVQAGGSLRLSCAASGSTFKAYAMGWYRQAPGKEMELVAVITADGSTSTHYADSVKGRFTISRDNAKNTVSLQMNSLNPEDTAVYYCAAGSPYYSERYYYWGQGTQVTVSS | low polyreactivity |
| QVQLVESGGGLVQAGGSLRLSCAASGRIFSAYAMGWYRQAPGKERELVAAITLSDGSTYYADSVKGRFTISRDNAKNTVYLQMNSLKPEDTAVYYCNADWYAYPYGYWGQGTQVTVSS | low polyreactivity |
| QVQLVESGGGLVQAGGSLRISCAPSGIIFTDYAMGWYRQAPGKERELVAAISSGGGSTYYADSVKGRFTISRDNAKNTVYLQMNSLKPEDTAVYYCAAEGYLISGAGDYLYDYYWGQGTQVTVSS | high polyreactivity |
| QVQLVESGGGLVQAGGSLRLSCAASGSIFGPYAMGWYRQAPGKEREVVAAINSGGSTNYADSVKGRFTISRDNAKNTVYLQMNSLKPEDTAVYYCNAADERSQGWVGYDHWGQCTQVTVSS | low polyreactivity |
| QVQLVESGGGLVQAGGSLRLSCDASGSTFVRYVMRWYRHAPGKEMELVAAISRRGGSTYYADSVKGRFTISRDNAKNTVYLQMNSLKPEDTAVYYCARTVCYRTLLESDSCGQGTQVTVSS | high polyreactivity |
| QVQLVESGGGLVQAGGSLRLSCAASGRTFWNYAMGWYRQAPGKERELVAVIRFSDGSTYYADSVKGRFTISRDNAKNTGYLQMISLKPEDTAVFYCAAKGPRRWGSGFDYWGQGTQVTVSS | low polyreactivity |
| QVQHVESGGGLVQAGGSLRLSCAATGTTFDTYAMGWNRQATGKERELVAAINSGGGTNYADSVKGRFTIARDNAKNTVYLQMNSLKPEVTAVYYCATDIRRDAGGGDFDYWGQGTQVTVSS | low polyreactivity |
| QVQLVESGGGLVQAGGSLRLSCAASGFNFRYNTMGWYRKAPRKERELVAAISVSGARTYYADSVKGRFTISRDNAKNTVYLQMNSLKPEDTAVFYCNRRYTFYSRYNNDYWGQGTQVTVSS | high polyreactivity |
| QVQLVESGGGLVQAGGSLRLSCAASGLIFRRYAMGWYRQAPGKEREFVAAISWSGGSTYYADSVKGRFTISRDNAKNTVYLQMNSLKPEDTAVYYCAARYRFGGIRRYNYWGQGTQVTVSS | high polyreactivity |
| QVQLVESGGGLVQAGGSLRLSCAPSGSTFRTYTMGWYIQAPGKERELVAAITGRGGSTYYADSVKGRFTISRDTAKNTVYFQMNSLKREDTAVYYCAALYGGQTKHDFWGQGTQVTVSS | low polyreactivity |
| QVQLVESGGGLVQAGGRLRLSCAPSGGIFNPNVMGGYRQSPGKETELVASITGRGGNTYYADSVKGRFTISRDNAKNTVYLQMNSLKPEDTAVYYCAAAIPHHSRVYYWGQGPQVTVSS | low polyreactivity |
| QVQLVESGGGLVQAGGSLSLSCAASGFIFTPYTMGWYREAPGKERELVAAITDGSSTNYADSVKGRFTISRDNAKNTVYLQMNSLKPEDTAVYYCAKDWPSAVYGSWAGRYDYWGQGSQVTVSS | low polyreactivity |
| QVQLVESGGGLVQAGGSLRLSCAASGSIFVLYAMGWYRQAPGKERELVATITWSGDSTYYADSVKGRFTISRDNAKNTVYLQMNSLKPEDTAVYYCNKRIWDQYDWGQGTQVTVSS | low polyreactivity |
| QVQLVESGGGLVQAGGSLRLSCAASGFIFGLYAIGWYRQAPGKERELVAAISRSGGSTYYADSVKGRFTISRDNAKNTVYLQMNSLKPEDTAVYYCNARYSWPRATWYDYWGQGTQVTVSS | high polyreactivity |
| QVQIVESGGGLVQAGGSLRLSCAASGSIFGYYVMGWNRQAPGKERELVAAISSGGGNTYYADSVKGRFTISRDNAKNTVYLQMISLKPEDTAVYYCAALRSWRKTGGAQRYWYDYWGHGTQVTVSS | high polyreactivity |
| QVQLVESGGGLVQAGGSLRLSCAASGFTFPRNAMGWYRQAPGKERELVAAISRGGGGTYYADSVKGRFTISRDNAKNTVYLQMNSLKPEDTAVYYFNAVYPGGSYKYDYWVQGTQVTVSS | high polyreactivity |
| QVQLVESGGGLVQAGGSLRLSCAASGSTFRYYAMGWYRQAPGKERELVAVIRNSGGSTYYADSVKGRFTISRDNAKNTVYLQKNSLKREDTAVYYCAARLYTFHRDYWGQGTQVTVSS | low polyreactivity |
| QVQLVESGGGLVQAGGSLRLSCPASGFTFYVNAMGWSRQAPGKERELVAGITTSDGSTYYADSVKGRFTISRDNAKNNVYLQMNSLKPEDTAVYYCAAAITWYQLYQRSGGDYWGQGTQVTVSS | low polyreactivity |
| QVQLVESGGGLVHAGGSLRLSCAASGSIFSWYDMGWYRQAPGKERELVADISSGGSTNYADSVKGRFTISRDNAKNTVYLQMNSMKPEDTAVYYCNARLGYLYDYWGQGTQVTVSS | low polyreactivity |
| QVQLVESGGGLVQAGGSLRLSCAASGIIFHKYAMGWYRQAPGKERELVAVITWRGGSTYYADSVKGRFTISRDHAKNTVYLQMNSLKPEDTAVYYCAARSQYRDRTGQYGYWGQGTQVTVSS | high polyreactivity |
| QVQLVESGGGLVQAGGSIRLSCAASGSTFFQYAMGWYRQAPGKERELVAAISSRGGRTYYADSVKGSFTISRDNAKNTVYLQMNSLKPEDTAVYYCAVDHLTRSGDGEYWGQGTQVTVSS | high polyreactivity |
